Test system: Escherichia coli TOP10
Test: shrunken log2 fold change of peptide-encoding DNA abundance (4.5 h post-induction vs induction); higher = less antimicrobial activity (less host growth inhibition)
Settings: time post-induction: 4.5 h; library: site-saturation at positions 5, 18, 19, 20
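Note: peptides expressed intracellularly from a pBAD plasmid library in pooled LB shake-flask culture, induced with 0.3% L-arabinose, DNA abundance read by NGS, three biological replicates, DESeq2 with apeglm shrinkage.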

Row | Sequence | shrunken log2 fold change
1 | RRIRCRPPRLPRPRPRPHRFPRP | -0.0713
2 | RRIRVRPPRLPRPRPRPKHQPRP | 0.0697
3 | RRIRPRPPRLPRPRPRPTFIPRP | -0.243
4 | RRIRSRPPRLPRPRPRPWFGPRP | -0.124
5 | RRIRPRPPRLPRPRPRPCIVPRP | -0.199
6 | RRIRWRPPRLPRPRPRPVPVPRP | 0.271
7 | RRIRSRPPRLPRPRPRPIAMPRP | -0.127
8 | RRIRDRPPRLPRPRPRPQHGPRP | 0.587
9 | RRIRNRPPRLPRPRPRPCIYPRP | -0.599
10 | RRIRWRPPRLPRPRPRPKNMPRP | -0.189
11 | RRIRQRPPRLPRPRPRPCPIPRP | 0.0347
12 | RRIRKRPPRLPRPRPRPIWWPRP | 0.0844
13 | RRIRLRPPRLPRPRPRPSFVPRP | -0.392
14 | RRIRRRPPRLPRPRPRPQPSPRP | 0.231
15 | RRIRERPPRLPRPRPRPLWWPRP | 0.0601
16 | RRIRGRPPRLPRPRPRPSSLPRP | -0.252
17 | RRIRMRPPRLPRPRPRPDTLPRP | -0.122
18 | RRIRKRPPRLPRPRPRPTFRPRP | 0.527
19 | RRIRNRPPRLPRPRPRPAANPRP | 0.487
20 | RRIRRRPPRLPRPRPRPHWEPRP | 0.127
21 | RRIRCRPPRLPRPRPRPPFFPRP | 0.449
22 | RRIRIRPPRLPRPRPRPFVYPRP | -0.625
23 | RRIRIRPPRLPRPRPRPYMMPRP | -1.26
24 | RRIRERPPRLPRPRPRPGARPRP | 0.255
25 | RRIRFRPPRLPRPRPRPNLHPRP | -0.235

Row | Sequence | shrunken log2 fold change
26 | RRIRWRPPRLPRPRPRPKFRPRP | 0.077
27 | RRIRSRPPRLPRPRPRPECWPRP | 1.03
28 | RRIRPRPPRLPRPRPRPYVQPRP | -0.147
29 | RRIRMRPPRLPRPRPRPSPLPRP | 0.302
30 | RRIRYRPPRLPRPRPRPQCSPRP | -0.73
31 | RRIRRRPPRLPRPRPRPPCKPRP | 0.492
32 | RRIRSRPPRLPRPRPRPVHGPRP | -0.215
33 | RRIRDRPPRLPRPRPRPGHYPRP | 0.0149
34 | RRIRARPPRLPRPRPRPINLPRP | -0.376
35 | RRIRHRPPRLPRPRPRPFKQPRP | -0.0287
36 | RRIRERPPRLPRPRPRPCYVPRP | -0.716
37 | RRIRFRPPRLPRPRPRPIPDPRP | -0.215
38 | RRIRQRPPRLPRPRPRPTSMPRP | -0.049
39 | RRIRIRPPRLPRPRPRPKAPPRP | -0.0151
40 | RRIRIRPPRLPRPRPRPAMYPRP | -0.733
41 | RRIRYRPPRLPRPRPRPGNRPRP | 0.0823
42 | RRIRVRPPRLPRPRPRPRDNPRP | -0.109
43 | RRIRSRPPRLPRPRPRPTWPPRP | 0.41
44 | RRIRRRPPRLPRPRPRPHHEPRP | 0.0234
45 | RRIRGRPPRLPRPRPRPVMRPRP | 0.749
46 | RRIRRRPPRLPRPRPRPEFQPRP | -0.0288
47 | RRIRNRPPRLPRPRPRPNMIPRP | -0.697
48 | RRIRLRPPRLPRPRPRPQYNPRP | -0.791
49 | RRIRERPPRLPRPRPRPQRQPRP | 0.0791
50 | RRIRVRPPRLPRPRPRPLCWPRP | 0.00832

Row | Sequence | shrunken log2 fold change
51 | RRIRDRPPRLPRPRPRPALQPRP | 0.671
52 | RRIRARPPRLPRPRPRPGECPRP | 0.298
53 | RRIRWRPPRLPRPRPRPFLCPRP | -0.139
54 | RRIRTRPPRLPRPRPRPWGFPRP | 0.0102
55 | RRIRQRPPRLPRPRPRPDELPRP | -0.0583
56 | RRIRNRPPRLPRPRPRPCRIPRP | -0.134
57 | RRIRQRPPRLPRPRPRPSSKPRP | -0.623
58 | RRIRDRPPRLPRPRPRPVKCPRP | -0.117
59 | RRIRWRPPRLPRPRPRPMCHPRP | -0.115
60 | RRIRRRPPRLPRPRPRPQQWPRP | 0.0704
61 | RRIRYRPPRLPRPRPRPHAAPRP | -0.211
62 | RRIRGRPPRLPRPRPRPSYIPRP | -0.458
63 | RRIRLRPPRLPRPRPRPYCNPRP | -0.963
64 | RRIRMRPPRLPRPRPRPIEVPRP | -0.00822
65 | RRIRGRPPRLPRPRPRPMIGPRP | 0.263
66 | RRIRNRPPRLPRPRPRPWGTPRP | 0.0962
67 | RRIRDRPPRLPRPRPRPTEKPRP | 0.0633
68 | RRIRIRPPRLPRPRPRPHSIPRP | -0.933
69 | RRIRTRPPRLPRPRPRPTIHPRP | -0.712
70 | RRIRPRPPRLPRPRPRPNHFPRP | -0.592
71 | RRIRHRPPRLPRPRPRPTSMPRP | -0.0792
72 | RRIRHRPPRLPRPRPRPMLIPRP | -0.824
73 | RRIRQRPPRLPRPRPRPFKHPRP | -0.244
74 | RRIRLRPPRLPRPRPRPKLHPRP | 0.108
75 | RRIRSRPPRLPRPRPRPLEDPRP | 0.0492

Row | Sequence | shrunken log2 fold change
76 | RRIRWRPPRLPRPRPRPHYTPRP | -0.638
77 | RRIRVRPPRLPRPRPRPVASPRP | 0.187
78 | RRIRGRPPRLPRPRPRPCQMPRP | 0.215
79 | RRIRVRPPRLPRPRPRPGCDPRP | 0.952
80 | RRIRQRPPRLPRPRPRPKIFPRP | 0.041
81 | RRIRLRPPRLPRPRPRPCFKPRP | -0.315
82 | RRIRVRPPRLPRPRPRPSACPRP | -0.768
83 | RRIRCRPPRLPRPRPRPDIVPRP | -0.0875
84 | RRIRHRPPRLPRPRPRPNCCPRP | 0.0161
85 | RRIRFRPPRLPRPRPRPGYLPRP | -0.0745
86 | RRIRQRPPRLPRPRPRPMFEPRP | 0.118
87 | RRIRCRPPRLPRPRPRPCWHPRP | -0.169
88 | RRIRMRPPRLPRPRPRPHMYPRP | -0.568
89 | RRIRERPPRLPRPRPRPWLWPRP | 0.239
90 | RRIRMRPPRLPRPRPRPGLCPRP | 1.79
91 | RRIRHRPPRLPRPRPRPEQRPRP | 0.229
92 | RRIRMRPPRLPRPRPRPTSDPRP | 0.055
93 | RRIRPRPPRLPRPRPRPGVSPRP | -0.0412
94 | RRIRVRPPRLPRPRPRPMSYPRP | -0.0627
95 | RRIRPRPPRLPRPRPRPRVAPRP | 0.743
96 | RRIRVRPPRLPRPRPRPYCMPRP | -0.898
97 | RRIRHRPPRLPRPRPRPYEGPRP | -0.0203
98 | RRIRCRPPRLPRPRPRPQWTPRP | -0.205
99 | RRIRARPPRLPRPRPRPDEFPRP | 0.331
100 | RRIRNRPPRLPRPRPRPCIDPRP | 0.027

Row | Sequence | shrunken log2 fold change
101 | RRIRLRPPRLPRPRPRPAPVPRP | 0.23
102 | RRIRWRPPRLPRPRPRPPRMPRP | 0.348
103 | RRIRDRPPRLPRPRPRPGSLPRP | -0.0141
104 | RRIRPRPPRLPRPRPRPLKHPRP | -0.221
105 | RRIRHRPPRLPRPRPRPKSWPRP | 0.26
106 | RRIRVRPPRLPRPRPRPICLPRP | 0.0369
107 | RRIRVRPPRLPRPRPRPYNSPRP | -0.0974
108 | RRIRFRPPRLPRPRPRPSLIPRP | -1.06
109 | RRIRCRPPRLPRPRPRPLLFPRP | -0.277
110 | RRIRIRPPRLPRPRPRPWWGPRP | 0.0378
111 | RRIRTRPPRLPRPRPRPVPIPRP | -0.0974
112 | RRIRCRPPRLPRPRPRPMSHPRP | -0.207
113 | RRIRNRPPRLPRPRPRPGLLPRP | -0.171
114 | RRIRMRPPRLPRPRPRPLGQPRP | 0.738
115 | RRIRVRPPRLPRPRPRPGSQPRP | -0.11
116 | RRIRSRPPRLPRPRPRPCKTPRP | 0.0503
117 | RRIRNRPPRLPRPRPRPTWEPRP | 0.102
118 | RRIRLRPPRLPRPRPRPVYAPRP | 0.00563
119 | RRIRARPPRLPRPRPRPITVPRP | -0.201
120 | RRIRGRPPRLPRPRPRPLNKPRP | 0.11
121 | RRIRIRPPRLPRPRPRPYDIPRP | -0.0903
122 | RRIRKRPPRLPRPRPRPPRYPRP | 0.525
123 | RRIRYRPPRLPRPRPRPAPLPRP | -0.0323
124 | RRIRHRPPRLPRPRPRPVFIPRP | -0.493
125 | RRIRIRPPRLPRPRPRPEKKPRP | -0.0556

Source: the supplement of paper PMC9112550, “Optimization of the antimicrobial peptide Bac7 by deep mutational scanning” (BMC Biology, 2022)
